As usually defined, the Km is the substrate concentration at which the rate is half of its maximum. A word on the kcat: it is the number of substrate molecules converted per active site and unit of time at saturation.

In US20110191903A1, “ENGINEERING PLANT RESISTANCE TO DISEASES CAUSED BY PATHOGENS” (Pioneer Hi-Bred International, Inc., priority 2009, published 2011) one finds Km and kcat data, which are given here for 4 proteins.

Changes are numbered by the printed parent chain. In names and notes the source's numbering stands.

Holding throughout (type): biochemical, Ceriporiopsis subvermispora
Substrate in data set [1]: O=C(O)C(=O)O
Nature of the data set: Oxalate oxidase kinetics, coupled horse radish peroxidase assay, ALT1 (WT-Q7). From the text: (§1) The E. coli expression system was based on the published protocol of Escutia et al. Escutia et al., Cloning and sequencing of two Ceriporiopsis subvermispora bicupin oxalate oxidase allelic isoforms: implications for the reaction specificity of oxalate oxidases and decarboxylases. (2005). The coding sequence for the mature OXOX enzyme was inserted in E. coli expression vector pET32 (Invitrogen) to include a 6× histidine tag at the C-terminus. The resulting expression plasmid was transformed into E. coli strain BL21Star pLysS (Invitrogen).
(§2) E. coli cultures were grown at 37° C. At optical density 0.4, arabinose was added to a concentration or 0.4%. After another hour of growth at 37° C., MnCl2 was added to 5 mM and IPTG to 1 mM. Cultures were then grown at 25° C. for 16 hours. Cells were harvested by centrifugation at 4000 rpm for 10 min. The supernatant was discarded and cell pellets were kept at −80° C. for at least one hour. Pellets were resuspended in total 40 ml of lysis buffer with 50 mM phosphate buffer pH7, 2 mg/ml protease inhibitor (sigma P-8465), 100 mM KCL, 1/1000 lysozyme, 1/2000 endonuclease, and incubated at 37° C. with shaking for one hour, followed by sonication. Cellular debris was removed by centrifugation and the clarified supernatant was poured into a new tube. Nickel resin (Qiagen) was added. After a short period of incubation, the slurry was poured onto a column and washed with buffer. Purified OXOX protein was eluted from the resin in 50 mM succinate pH 5, 100 mM KCl. The E. coli expression procedure was scalable allowing large scale protein production for kinetic analysis as well as small scale production for high throughput screening of libraries.
(§3) Oxalate oxidase enzymatic activity was determined in a coupled reaction. Oxalate oxidase converts oxalic acid to carbon dioxide and hydrogen peroxide. In the presence of horse radish peroxidase, hydrogen peroxide reacts with 3-methyl-2-benzothiazolinone hydrazone (MBTH) and N,N-dimethylaniline (DMA) to form indamine dye, which can be detected spectrophotmetrically or colorimetrically as described by Laker, M. F., Hoffman, A. F., and Meeuse, J. D. (1980) Clinical Chemistry 26, 827-830. The coupled reaction was used for characterization of oxalate oxidase kinetic properties as well as in a screening procedure to identify oxalate oxidase variants with improved enzymatic properties.
(§4) Three potential glycosylations sites with the consensus amino acid sequence N—X—(S/T) were identified in OXOX-C at amino acid positions 60, 384 and 430 in SEQ ID NO:27. Site-directed mutagenesis was used to alter these sites (Quickchange, Stratagene). Every possible amino acid substitution was generated at the third amino acid position of each potential glyosylation site. The resulting variants were screened for activity using the enzymatic assay described in Example 3. […] These variants correspond to sequences OXOX-C-MOD1-ALT1 (SEQ ID NO:23) and OXOX-C-MOD1-ALT2 (SEQ ID NO:24).
(§5) More modest improvements in Km and Kcat were observed under lower pH conditions. Coupled reaction was preformed as described in Example 3. Enzyme kinetic parameters were determined by standard methods as described in Segel (1976) Biochemical calculations, 2nd Edition. John Wiley & Sons, London, New York, Sydney, Toronto.

Substrate in data set [2]: O=C(O)C(=O)O
The experiment in a line: Oxalate oxidase kinetics, coupled horse radish peroxidase assay, ALT5 (2-6).
Source text: as §1, §2, §3
(§6) DNA shuffling was performed as described elsewhere herein. A polymerase chain reaction product corresponding to the OXOX-C coding sequence was fragmented by limited nuclease treatment. Synthetic oligonucleotides encoding sequence diversity from oxalate decarboxylase sequences found in public databases were added. A polymerase chain reaction procedure was performed on the mixture to yield a library of full length OXOX-C coding sequences with additional diversity incorporated. The resulting library was inserted in expression vector pET32, E. coli cells were transformed and protein was expressed, as described in Example 2. A tiered screening strategy was devised based on the OXOX protein expression and enzymatic activity determination procedures described in Examples 2 and 3, respectively. A high throughput screening process based on colorimetric determination of OXOX activity was utilized to identify individual E. coli strains harboring active OXOX variants. These OXOX-active strains were reassayed using quantitative spectrophotometric determination of OXOX activity. […] Three rounds of this iterative screening and selection procedure were completed, and OXOX variants with up to 8-fold improved activity were identified
as §5

Substrate in data set [3]: O=C(O)C(=O)O
The experiment in a line: Oxalate oxidase kinetics, coupled horse radish peroxidase assay, ALT2 (glyc-).
Source text: as §1, §2, §3, §4, §5

Substrate in data set [4]: O=C(O)C(=O)O
Nature of the data set: Oxalate oxidase kinetics, coupled horse radish peroxidase assay, ALT4 (1-23).
Source text: as §1, §2, §3, §6, §5

B1: Ceriporiopsis subvermispora oxalate oxidase OXOX-C variant ALT1 (WT-Q7), glycosylation minus, T60I/T384Q/S430Q relative to SEQ ID NO: 37, SEQ ID NO: 23 … (protein)
chain: RPTENGPQIVIANNAGTYLPVLRGSGTKSSSAADATQTVPFASDDPNPRLWDIDTKNLIKVTPERGQLGAKILGPDNLPIDLQNADTLAPPTTDSGSIPNPKWPFALSHNTLYSGGWVRIQNDEVMPIAKAMAGVNMRLEAGAIRELHWHNTPEWAYILKGTTQITAVDQNGRNYLANVGPGDLWYFPEGMPHSLQGTDANNEGSEFLLIFPDGTFDSSNQFMITDWLAHTPKDVIAKNFGVDISEFDRLPSHDLYIFPGVAPPLDAKAPEDPQGTIPLPYSFEFSKVKPTQYAGGTVKIADTRTFPIAKTISVAEVTVEPGAMRELHWHPTEDEWTFFIEGQARVTIFAGQSNAQTYDYQGGDIAYIPTAWGHYVENSGNTQLRFLEIFNSPLFEDVSLAQWIANTPPAIVKATLQLSDEVINTLNKQKAFVVG
notes: glycosylation sites removed
Take B1: the Km in data set [1] (other: pH 3.8, pH 3.8) is 330 µM; in data set [1] (other: pH 4.8, pH 4.8), 1210 µM; in data set [1] (other: pH 5.8, pH 5.8) it was 6010 µM. In addition, the kcat was found to be 5.00 s⁻¹ in data set [1] (other: pH 3.8, pH 3.8); 2.70 s⁻¹ in data set [1] (other: pH 4.8, pH 4.8); 0.85 s⁻¹ in data set [1] (other: pH 5.8, pH 5.8).

B2: Ceriporiopsis subvermispora oxalate oxidase OXOX-C variant ALT5 (2-6), I54M/I60E/I99V/W118Y/F259Y/I278V/F339Y/Y359F/F396Y relative to OXOX-C-ALT1 (SEQ ID NO: … (protein)
chain: B1 chain with I53M, I59E, I98V, W117Y, F258Y, I277V, F338Y, Y358F, F395Y
For B2, the Km in data set [2] (other: pH 3.8, pH 3.8) was 460 µM; in data set [2] (other: pH 4.8, pH 4.8) it was 2320 µM; in data set [2] (other: pH 5.8, pH 5.8), 8910 µM. The kcat in data set [2] (other: pH 3.8, pH 3.8) was 10.01 s⁻¹; in data set [2] (other: pH 4.8, pH 4.8), 7.06 s⁻¹; in data set [2] (other: pH 5.8, pH 5.8) it was 2.44 s⁻¹.

B3: Ceriporiopsis subvermispora oxalate oxidase OXOX-C variant ALT2 (glyc-), glycosylation minus, T60R/T384V/S430D relative to SEQ ID NO: 37, SEQ ID NO: 24 … (protein)
chain: B1 chain with I59R, Q383V, Q429D
notes: glycosylation sites removed
As for B3, the Km is 280 µM in data set [3] (other: pH 3.8, pH 3.8); 1240 µM in data set [3] (other: pH 4.8, pH 4.8); 5900 µM in data set [3] (other: pH 5.8, pH 5.8). Further, the kcat amounted to 5.60 s⁻¹ in data set [3] (other: pH 3.8, pH 3.8); 2.99 s⁻¹ in data set [3] (other: pH 4.8, pH 4.8); 0.91 s⁻¹ in data set [3] (other: pH 5.8, pH 5.8).

B4: Ceriporiopsis subvermispora oxalate oxidase OXOX-C variant ALT4 (1-23), W118Y/I166V/F259Y/I278V/Y282F/F339Y/F396Y relative to OXOX-C-ALT1 (SEQ ID NO: 35), SEQ … (protein)
chain: B1 chain with W117Y, I165V, F258Y, I277V, Y281F, F338Y, F395Y
Take B4: the Km in data set [4] (other: pH 3.8, pH 3.8) was 350 µM; in data set [4] (other: pH 4.8, pH 4.8), 1320 µM; in data set [4] (other: pH 5.8, pH 5.8), 5510 µM. For the same protein, the kcat is 4.08 s⁻¹ in data set [4] (other: pH 3.8, pH 3.8); 2.70 s⁻¹ in data set [4] (other: pH 4.8, pH 4.8); 0.85 s⁻¹ in data set [4] (other: pH 5.8, pH 5.8).
